From paper PMC9482650, “Quantitative fragmentomics allow affinity mapping of interactomes” (Nature Communications, 2022)

Assays:
Assay in all cases: holdup assay
Parameters in all cases: key: below the threshold = too weak to quantify, mostly under pKd 3.1 to 4
APBA1_1, Q02410 = biological target: T1, APBA1_1, Q02410
T1 sequence (Q02410 651-752, limits assumed, looked up): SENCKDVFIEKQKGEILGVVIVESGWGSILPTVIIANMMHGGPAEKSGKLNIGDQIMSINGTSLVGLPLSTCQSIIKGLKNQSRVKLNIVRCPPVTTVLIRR

ARHGEF12, Q9NZN5-2 = details: plain residues with an end cap or a label only (N-terminal biotin on a linker: ttds)
DLG1_2, Q12959 = biological target: DLG1_2, Q12959
DLG2_3, Q15700 = biological target: DLG2_3, Q15700
DLG5_1, Q8TDM6 = biological target: DLG5_1, Q8TDM6
DVL3, Q92997 = biological target: T2, DVL3, Q92997
T2 sequence (Q92997 244-331, limits assumed, looked up): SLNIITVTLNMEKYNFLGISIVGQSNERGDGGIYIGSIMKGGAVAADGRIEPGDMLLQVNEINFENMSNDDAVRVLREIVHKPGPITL

GRIP1_2, Q9Y3R0 = biological target: T3, GRIP1_2, Q9Y3R0
T3 sequence (Q9Y3R0 145-248, limits assumed, looked up): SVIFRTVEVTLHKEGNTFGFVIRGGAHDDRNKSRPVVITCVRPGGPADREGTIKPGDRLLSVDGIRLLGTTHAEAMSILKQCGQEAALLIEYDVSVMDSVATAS

GRIP2_3, Q9C0E4 = biological target: GRIP2_3, Q9C0E4
HTRA4, P83105 = biological target: T4, HTRA4, P83105
T4 sequence (P83105 378-476, limits assumed, looked up): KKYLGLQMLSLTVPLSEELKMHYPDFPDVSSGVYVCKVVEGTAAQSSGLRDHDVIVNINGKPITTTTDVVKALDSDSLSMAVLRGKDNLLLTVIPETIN

IL16_1, Q14005 = biological target: IL16_1, Q14005
Inadl_10, Q8NI35 = biological target: Inadl_10, Q8NI35
Inadl_8, Q8NI35 = biological target: Inadl_8, Q8NI35
LIMK2, P53671 = biological target: LIMK2, P53671
LIN7C, Q9NUP9 = biological target: T5, LIN7C, Q9NUP9
T5 sequence (Q9NUP9 88-185, limits assumed, looked up): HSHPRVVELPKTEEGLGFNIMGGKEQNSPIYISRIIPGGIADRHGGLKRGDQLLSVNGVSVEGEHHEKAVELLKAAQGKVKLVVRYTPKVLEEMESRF

MAGI2_2, Q86UL8 = biological target: MAGI2_2, Q86UL8
MAGI2_5, Q86UL8 = biological target: MAGI2_5, Q86UL8
MAST2, Q6P0Q8 = biological target: MAST2, Q6P0Q8
NHERF4_1, Q86UT5-2 = biological target: NHERF4_1, Q86UT5-2
NHERF4_4, Q86UT5 = biological target: NHERF4_4, Q86UT5
RAPGEF6, Q8TEU7 = biological target: T6, RAPGEF6, Q8TEU7
T6 sequence (Q8TEU7 525-625, limits assumed, looked up): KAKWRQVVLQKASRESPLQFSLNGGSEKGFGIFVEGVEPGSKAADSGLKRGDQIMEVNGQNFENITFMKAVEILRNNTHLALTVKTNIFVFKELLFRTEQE

RHPN1, Q8TCX5 = biological target: T7, RHPN1, Q8TCX5
T7 sequence (Q8TCX5 508-602, limits assumed, looked up): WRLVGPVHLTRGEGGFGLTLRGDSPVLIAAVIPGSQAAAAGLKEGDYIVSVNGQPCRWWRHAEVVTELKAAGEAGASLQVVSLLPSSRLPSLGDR

SNTA1, Q13424 = biological target: T8, SNTA1, Q13424; details: plain residues with an end cap or a label only (N-terminal biotin on a linker: ttds)
T8 sequence (Q13424 82-180, limits assumed, looked up): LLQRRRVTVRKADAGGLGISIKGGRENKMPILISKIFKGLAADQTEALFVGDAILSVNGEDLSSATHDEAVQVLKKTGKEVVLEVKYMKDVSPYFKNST

SNTB1, Q13884 = biological target: T9, SNTB1, Q13884; details: plain residues with an end cap or a label only (N-terminal biotin on a linker: ttds)
T9 sequence (Q13884 107-205, limits assumed, looked up): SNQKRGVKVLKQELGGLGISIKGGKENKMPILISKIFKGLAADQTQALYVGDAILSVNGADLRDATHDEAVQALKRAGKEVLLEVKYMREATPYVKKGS

SNTG1, Q9NSN8 = biological target: T10, SNTG1, Q9NSN8
T10 sequence (Q9NSN8 52-150, limits assumed, looked up): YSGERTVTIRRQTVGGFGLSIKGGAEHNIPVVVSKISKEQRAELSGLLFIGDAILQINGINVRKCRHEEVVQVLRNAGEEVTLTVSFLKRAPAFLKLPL

TJP2_1, Q9UDY2 = biological target: TJP2_1, Q9UDY2
TX1BP3, O14907 = biological target: T11, TX1BP3, O14907
T11 sequence (O14907 10-122, limits assumed, looked up): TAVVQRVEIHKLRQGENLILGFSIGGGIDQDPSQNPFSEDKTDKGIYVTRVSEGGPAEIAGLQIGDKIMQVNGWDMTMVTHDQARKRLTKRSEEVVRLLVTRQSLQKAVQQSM

[1] = plain residues with an end cap or a label only (N-terminal biotin on a linker: ttds)
[2] = plain residues with an end cap or a label only (N-terminal biotin on a linker: ahx)

Inadl_10, Q8NI35, sequence (Q8NI35 1673-1763): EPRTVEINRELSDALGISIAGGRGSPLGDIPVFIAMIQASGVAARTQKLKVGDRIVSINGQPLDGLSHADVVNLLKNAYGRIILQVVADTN
TJP2_1, Q9UDY2, sequence (Q9UDY2 24-128): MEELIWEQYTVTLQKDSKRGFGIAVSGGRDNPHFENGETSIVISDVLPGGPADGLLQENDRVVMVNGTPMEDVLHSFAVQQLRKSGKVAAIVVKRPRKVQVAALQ
MAGI2_2, Q86UL8, sequence (Q86UL8 410-522): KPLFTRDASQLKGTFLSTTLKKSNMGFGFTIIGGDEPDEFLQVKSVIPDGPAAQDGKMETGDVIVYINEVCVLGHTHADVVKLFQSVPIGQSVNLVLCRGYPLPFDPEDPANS
NHERF4_1, Q86UT5-2, sequence (Q86UT5 other isoform, or with tags, fused parts or gaps): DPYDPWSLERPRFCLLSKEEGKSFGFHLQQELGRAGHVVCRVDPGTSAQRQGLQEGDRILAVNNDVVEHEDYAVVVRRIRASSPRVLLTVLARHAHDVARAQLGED
MAGI2_5, Q86UL8, sequence (Q86UL8 915-1017): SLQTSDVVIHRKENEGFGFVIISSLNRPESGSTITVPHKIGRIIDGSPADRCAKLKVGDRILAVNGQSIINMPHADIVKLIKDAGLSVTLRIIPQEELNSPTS
DLG1_2, Q12959, sequence (Q12959 314-412): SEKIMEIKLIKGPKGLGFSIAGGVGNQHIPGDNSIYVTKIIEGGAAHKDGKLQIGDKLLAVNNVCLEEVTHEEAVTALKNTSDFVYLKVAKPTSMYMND
Inadl_8, Q8NI35, sequence (Q8NI35 1425-1530): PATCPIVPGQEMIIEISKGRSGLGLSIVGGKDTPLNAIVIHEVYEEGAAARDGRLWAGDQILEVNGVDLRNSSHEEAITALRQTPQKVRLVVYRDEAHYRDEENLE
IL16_1, Q14005, sequence (Q14005 210-306): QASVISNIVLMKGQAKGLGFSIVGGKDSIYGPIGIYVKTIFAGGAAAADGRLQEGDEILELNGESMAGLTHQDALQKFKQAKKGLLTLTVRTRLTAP
NHERF4_4, Q86UT5, sequence (Q86UT5 464-550): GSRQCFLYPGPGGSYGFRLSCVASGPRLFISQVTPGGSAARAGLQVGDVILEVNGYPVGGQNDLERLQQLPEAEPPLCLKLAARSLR
MAST2, Q6P0Q8, sequence (Q6P0Q8 1099-1202): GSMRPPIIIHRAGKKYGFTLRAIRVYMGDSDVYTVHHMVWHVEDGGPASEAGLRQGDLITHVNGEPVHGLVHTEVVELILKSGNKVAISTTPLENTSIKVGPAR
GRIP2_3, Q9C0E4, sequence (Q9C0E4 238-339): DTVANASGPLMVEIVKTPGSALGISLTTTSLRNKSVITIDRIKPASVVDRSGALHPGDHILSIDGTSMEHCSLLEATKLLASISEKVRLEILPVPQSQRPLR
LIMK2, P53671, sequence (P53671 143-248): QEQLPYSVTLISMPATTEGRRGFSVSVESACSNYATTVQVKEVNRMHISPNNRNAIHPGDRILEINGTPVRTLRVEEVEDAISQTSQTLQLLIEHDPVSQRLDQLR
DLG5_1, Q8TDM6, sequence (Q8TDM6 617-713): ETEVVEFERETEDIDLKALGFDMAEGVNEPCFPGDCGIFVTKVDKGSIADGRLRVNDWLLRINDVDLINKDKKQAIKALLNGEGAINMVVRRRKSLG
ARHGEF12, Q9NZN5-2, sequence (Q9NZN5 other isoform, or with tags, fused parts or gaps): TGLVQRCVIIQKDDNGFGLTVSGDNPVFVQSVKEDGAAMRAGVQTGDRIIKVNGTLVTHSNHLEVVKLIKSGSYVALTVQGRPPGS

B1: HPV59-E6, Q81964 (peptide)
chain: QRQARSETLV
pKd (APBA1_1, Q02410; [1]): below the threshold | pKd (ARHGEF12, Q9NZN5-2): below the threshold | pKd (DLG1_2, Q12959; [1]): 5.56 | pKd (DLG2_3, Q15700; [1]): 4.84 | pKd (DLG5_1, Q8TDM6; [1]): below the threshold | pKd (DVL3, Q92997; [1]): below the threshold | pKd (GRIP1_2, Q9Y3R0; [1]): below the threshold | pKd (GRIP2_3, Q9C0E4; [1]): below the threshold | pKd (HTRA4, P83105; [1]): 3.78 | pKd (IL16_1, Q14005; [1]): below the threshold | pKd (Inadl_10, Q8NI35; [1]): below the threshold | pKd (Inadl_8, Q8NI35; [1]): below the threshold | pKd (LIMK2, P53671; [1]): below the threshold | pKd (LIN7C, Q9NUP9; [1]): 3.87 | pKd (MAGI2_2, Q86UL8; [1]): 6.07 | pKd (MAGI2_5, Q86UL8; [1]): 5.02 | pKd (MAST2, Q6P0Q8; [1]): 5.03 | pKd (NHERF4_1, Q86UT5-2; [1]): below the threshold | pKd (NHERF4_4, Q86UT5; [1]): below the threshold | pKd (RAPGEF6, Q8TEU7; [1]): below the threshold | pKd (RHPN1, Q8TCX5; [1]): 3.94 | pKd (SNTA1, Q13424): 3.99 | pKd (SNTB1, Q13884): 3.86 | pKd (SNTG1, Q9NSN8; [1]): 4.17 | pKd (TJP2_1, Q9UDY2; [1]): 3.81 | pKd (TX1BP3, O14907; [1]): 4.05

B2: ARHGEF7, Q14155;Q14155-1 (peptide)
chain: NDPAWDETNL
pKd (APBA1_1, Q02410; [1]): below the threshold | pKd (ARHGEF12, Q9NZN5-2): 4.03 | pKd (DLG1_2, Q12959; [1]): below the threshold | pKd (DLG2_3, Q15700; [1]): below the threshold | pKd (DLG5_1, Q8TDM6; [1]): below the threshold | pKd (DVL3, Q92997; [1]): below the threshold | pKd (GRIP1_2, Q9Y3R0; [1]): below the threshold | pKd (GRIP2_3, Q9C0E4; [1]): below the threshold | pKd (HTRA4, P83105; [1]): below the threshold | pKd (IL16_1, Q14005; [1]): below the threshold | pKd (Inadl_10, Q8NI35; [1]): below the threshold | pKd (Inadl_8, Q8NI35; [1]): below the threshold | pKd (LIMK2, P53671; [1]): below the threshold | pKd (LIN7C, Q9NUP9; [1]): below the threshold | pKd (MAGI2_2, Q86UL8; [1]): below the threshold | pKd (MAGI2_5, Q86UL8; [1]): below the threshold | pKd (MAST2, Q6P0Q8; [1]): 5.98 | pKd (NHERF4_1, Q86UT5-2; [1]): below the threshold | pKd (NHERF4_4, Q86UT5; [1]): below the threshold | pKd (RAPGEF6, Q8TEU7; [1]): below the threshold | pKd (RHPN1, Q8TCX5; [1]): 4.6 | pKd (SNTB1, Q13884): 4.26 | pKd (SNTG1, Q9NSN8; [1]): 4.26 | pKd (TJP2_1, Q9UDY2; [1]): below the threshold | pKd (TX1BP3, O14907; [1]): 5.76

B3: GRIN1, Q05586;Q05586-2 (peptide)
chain: LSDPSVSTVV
pKd (APBA1_1, Q02410; [2]): below the threshold | pKd (DLG1_2, Q12959; [2]): 4.51 | pKd (DLG2_3, Q15700; [2]): 4.26 | pKd (DLG5_1, Q8TDM6; [2]): below the threshold | pKd (DVL3, Q92997; [2]): below the threshold | pKd (GRIP1_2, Q9Y3R0; [2]): below the threshold | pKd (GRIP2_3, Q9C0E4; [2]): below the threshold | pKd (HTRA4, P83105; [2]): below the threshold | pKd (IL16_1, Q14005; [2]): below the threshold | pKd (Inadl_10, Q8NI35; [2]): below the threshold | pKd (Inadl_8, Q8NI35; [2]): below the threshold | pKd (LIMK2, P53671; [2]): below the threshold | pKd (LIN7C, Q9NUP9; [2]): below the threshold | pKd (MAGI2_2, Q86UL8; [2]): below the threshold | pKd (MAGI2_5, Q86UL8; [2]): 4.36 | pKd (MAST2, Q6P0Q8; [2]): 4.25 | pKd (NHERF4_1, Q86UT5-2; [2]): below the threshold | pKd (NHERF4_4, Q86UT5; [2]): below the threshold | pKd (RAPGEF6, Q8TEU7; [2]): below the threshold | pKd (RHPN1, Q8TCX5; [2]): 4.47 | pKd (SNTG1, Q9NSN8; [2]): below the threshold | pKd (TJP2_1, Q9UDY2; [2]): below the threshold | pKd (TX1BP3, O14907; [2]): below the threshold
